Numbered stars: 1 amine (or outer) side, 2 acyl side, 3 side chain; on linkers, the order of the positions; unused ones are H or OH. Side chains are listed from the residue outwards. Ends that are not written are not given here. * marks the point of attachment. C18 diacid = O=C(O)CCCCCCCCCCCCCCCCC(=O)*; γGlu = O=C(O)[C@H](CCC(=O)[*:2])N[*:1]; AEEA = NCCOCCOCC(=O)O
Molecular target: CCK2 receptor (gastrin receptor)
Assay: cell-based or functional assay

Relative Receptor Potency	Binder
30	QGPK([AEEA-AEEA-γGlu-C18 diacid])LEEEEEAYGWLDF-NH2 (ends and bridges not checked) [[Lys4(N-ε-#),Leu15] Gastrin-17]
0	QGPWLEEEEEAYGWLDK([AEEA-AEEA-γGlu-C18 diacid])-NH2 (ends and bridges not checked) [[Lys17(N-ε-#), Leu 15] Gastrin-17]
0	QGPWLEEEEEAYGWLK([AEEA-AEEA-γGlu-C18 diacid])F-NH2 (ends and bridges not checked) [[Lys16(N-ε-#),Leu15] Gastrin-17]
0	QGPWLEEEEEAYGWK([AEEA-AEEA-γGlu-C18 diacid])DF-NH2 (ends and bridges not checked) [[Lys15(N-ε-#)] Gastrin-17]
60	QGK([AEEA-AEEA-γGlu-C18 diacid])WLEEEEEAYGWLDF-NH2 (ends and bridges not checked) [[Lys3(N-ε-#),Leu15] Gastrin-17]
40	QGPWLK([AEEA-AEEA-γGlu-C18 diacid])EEEEAYGWLDF-NH2 (ends and bridges not checked) [[Lys6(N-ε-#),Leu15] Gastrin-17]
5	QGPWLEEEEEAYK([AEEA-AEEA-γGlu-C18 diacid])WLDF-NH2 (ends and bridges not checked) [[Lys13(N-ε-#),Leu15] Gastrin-17]
100	QGPWLEEEEEAYGWLDF-NH2 (ends and bridges not checked) [[Leu15] Gastrin-17]
57	{C18 diacid-γGlu-AEEA-AEEA}-QGPWLEEEEEAYGWLDF-NH2 (ends and bridges not checked) [N-α-#-[Leu15] Gastrin-17]
0	QGPWLEEEEEAYGK([AEEA-AEEA-γGlu-C18 diacid])LDF-NH2 (ends and bridges not checked) [[Lys14(N-ε-#),Leu15] Gastrin-17]
6	QGPWLEEEEEAK([AEEA-AEEA-γGlu-C18 diacid])GWLDF-NH2 (ends and bridges not checked) [[Lys12(N-ε-#),Leu15] Gastrin-17]

Molecular target: CCK2 receptor (gastrin receptor)
Assay: cell-based or functional assay
Remark: another data set of the same source

Relative Receptor Potency	Binder
7	{C18 diacid-γGlu-AEEA-AEEA}-YGWLDF-NH2 (ends and bridges not checked) [N-α-#-[Leu15] Gastrin-17 (12-17)]
30	{C18 diacid-γGlu-AEEA-AEEA}-EEAYGWLDF-NH2 (ends and bridges not checked) [N-α-#-[Leu15] Gastrin-17 (9-17)]
58	{C18 diacid-γGlu-AEEA-AEEA}-WLEEEEEAYGWLDF-NH2 (ends and bridges not checked) [N-α-#-[Leu15] Gastrin-17 (4-17)]
0	{C18 diacid-γGlu-AEEA-AEEA}-WLDF-NH2 (SMILES CC(C)C[C@H](NC(=O)[C@H](Cc1c[nH]c2ccccc12)NC(=O)COCCOCCNC(=O)COCCOCCNC(=O)CC[C@H](NC(=O)CCCCCCCCCCCCCCCCC(=O)O)C(=O)O)C(=O)N[C@@H](CC(=O)O)C(=O)N[C@@H](Cc1ccccc1)C(N)=O) [N-α-#-[Leu15] Gastrin-17 (14-17)]
6	{C18 diacid-γGlu-AEEA-AEEA}-GWLDF-NH2 (SMILES CC(C)C[C@H](NC(=O)[C@H](Cc1c[nH]c2ccccc12)NC(=O)CNC(=O)COCCOCCNC(=O)COCCOCCNC(=O)CC[C@H](NC(=O)CCCCCCCCCCCCCCCCC(=O)O)C(=O)O)C(=O)N[C@@H](CC(=O)O)C(=O)N[C@@H](Cc1ccccc1)C(N)=O) [N-α-#-[Leu15] Gastrin-17 (13-17)]
100	QGPWLEEEEEAYGWLDF-NH2 (ends and bridges not checked) [[Leu15] Gastrin-17]
76	{C18 diacid-γGlu-AEEA-AEEA}-QGPWLEEEEEAYGWLDF-NH2 (ends and bridges not checked) [N-α-#-[Leu15] Gastrin-17]
0	{C18 diacid-γGlu-AEEA-AEEA}-Asp-Phe-NH2 (SMILES NC(=O)[C@H](Cc1ccccc1)NC(=O)[C@H](CC(=O)O)NC(=O)COCCOCCNC(=O)COCCOCCNC(=O)CC[C@H](NC(=O)CCCCCCCCCCCCCCCCC(=O)O)C(=O)O) [N-α-#-Gastrin-17 (16-17)]
0	{C18 diacid-γGlu-AEEA-AEEA}-Leu-Asp-Phe-NH2 (SMILES CC(C)C[C@H](NC(=O)COCCOCCNC(=O)COCCOCCNC(=O)CC[C@H](NC(=O)CCCCCCCCCCCCCCCCC(=O)O)C(=O)O)C(=O)N[C@@H](CC(=O)O)C(=O)N[C@@H](Cc1ccccc1)C(N)=O) [N-α-#-[Leu15] Gastrin-17 (15-17)]
39	{C18 diacid-γGlu-AEEA-AEEA}-EEEEAYGWLDF-NH2 (ends and bridges not checked) [N-α-#-[Leu15] Gastrin-17 (7-17)]
